One test has as its target T1, human plasma kallikrein (human, UniProt P03952 20-390; P03952 391-638).
T1 construct: two disulfide linked chains; also called pKal; human pKal
The test is described as follows: Ki,app, enzyme inhibition of pKal, IgG.

The target of test [1] is T2, human plasma kallikrein (active form) (human, UniProt P03952 20-390; P03952 391-638).
T2 construct: also called pKal; human pKal
The test is described as follows: apparent Ki (Ki,app), inhibition of human pKal enzyme activity.

The target of test [2] is T2, human plasma kallikrein (active form). The description is as above. Here is the method:
(§1) Apparent Inhibition constants (K_{i,app} values) were measured by pre-incubating enzyme and inhibitor solutions prior to initiating the reactions with substrate. Enzyme and inhibitor were pre-incubated for 2 hours at 30° C. in a 96-well plate by adding 10 μL of a 10× enzyme solution and 10 μL of 10× inhibitor solutions to 70 μL of reaction buffer. Reactions were initiated by the addition of 10 μL of a 10× concentrated stock of substrate, and were monitored at 30° C. in a fluorescence plate reader with the excitation and emission wavelengths set at 360 nm/460 nm, respectively. Kinetic data were acquired by the increase in fluorescence, and initial rates for each condition were plotted against the total inhibitor concentration. The data was fit to the following equation for tight binding inhibitors: […]
The source holds these as a separate data set.

The target of test [3] is T3, mouse plasma kallikrein (mouse, UniProt P26262 20-638, limits assumed).
T3 construct: also called mouse pKal
The test is described as follows: apparent Ki (Ki,app), inhibition of mouse pKal enzyme activity. Here is the method:
as §1

Test [4] addresses T3, mouse plasma kallikrein. The test is described as follows: apparent Ki (Ki,app), inhibition of rodent pKal enzyme activity.
The target in the next test is T4, rat plasma kallikrein (rat, UniProt P14272 20-638, limits assumed).
T4 construct: also called rat pKal
The test is described as above.

Test [5] has as its target T5, pKal catalytic domain Mutant 2 (human, UniProt P03952 391-638).
T5 construct: Expressed in Pichia pastoris, purified by IMAC; not shown: His tag fusion
The test is described as follows: enzyme inhibition, Ki,app on mutant and wild type pKal catalytic domain.

Where two headings read alike, the source gives them in different places.

T2 sequence (P03952 20-390, chain 1 of 2): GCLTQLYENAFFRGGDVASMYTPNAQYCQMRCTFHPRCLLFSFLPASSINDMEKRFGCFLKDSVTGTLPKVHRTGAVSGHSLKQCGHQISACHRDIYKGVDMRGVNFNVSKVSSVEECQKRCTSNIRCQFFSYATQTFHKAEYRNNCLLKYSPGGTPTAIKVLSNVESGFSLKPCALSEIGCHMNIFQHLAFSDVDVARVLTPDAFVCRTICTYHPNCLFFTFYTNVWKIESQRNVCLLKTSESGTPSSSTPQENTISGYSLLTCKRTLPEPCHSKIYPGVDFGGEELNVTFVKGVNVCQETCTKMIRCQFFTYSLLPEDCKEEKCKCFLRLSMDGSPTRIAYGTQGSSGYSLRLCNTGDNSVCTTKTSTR
T2 sequence (P03952 391-638, chain 2 of 2): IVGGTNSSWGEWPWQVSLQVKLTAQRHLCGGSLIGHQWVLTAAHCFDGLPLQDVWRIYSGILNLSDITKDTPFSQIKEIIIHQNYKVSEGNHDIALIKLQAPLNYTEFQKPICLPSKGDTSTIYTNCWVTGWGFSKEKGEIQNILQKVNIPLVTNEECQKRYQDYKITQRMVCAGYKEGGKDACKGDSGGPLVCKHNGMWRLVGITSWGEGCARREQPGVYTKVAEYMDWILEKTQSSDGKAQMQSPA
T3 sequence (P26262 20-638 limits assumed): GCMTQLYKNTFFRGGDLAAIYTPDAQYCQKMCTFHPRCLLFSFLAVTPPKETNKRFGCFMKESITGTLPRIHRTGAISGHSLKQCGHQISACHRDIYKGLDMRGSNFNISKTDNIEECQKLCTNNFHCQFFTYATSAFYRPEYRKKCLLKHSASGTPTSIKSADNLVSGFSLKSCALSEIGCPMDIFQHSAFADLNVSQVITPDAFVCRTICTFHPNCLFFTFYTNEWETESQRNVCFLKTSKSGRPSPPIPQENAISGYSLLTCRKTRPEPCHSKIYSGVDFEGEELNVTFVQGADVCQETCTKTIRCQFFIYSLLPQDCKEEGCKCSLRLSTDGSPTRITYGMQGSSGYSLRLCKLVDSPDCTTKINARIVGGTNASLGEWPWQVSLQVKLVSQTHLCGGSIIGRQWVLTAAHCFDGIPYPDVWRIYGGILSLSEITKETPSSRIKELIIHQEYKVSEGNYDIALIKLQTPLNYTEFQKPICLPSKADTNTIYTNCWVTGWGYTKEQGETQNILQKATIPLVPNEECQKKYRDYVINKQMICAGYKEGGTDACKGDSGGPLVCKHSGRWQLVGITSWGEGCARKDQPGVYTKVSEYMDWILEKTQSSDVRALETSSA
T1 sequence (P03952 20-390, chain 1 of 2): as the sequence (P03952 20-390, chain 1 of 2) above
T1 sequence (P03952 391-638, chain 2 of 2): as the sequence (P03952 391-638, chain 2 of 2) above
T4 sequence (P14272 20-638 limits assumed): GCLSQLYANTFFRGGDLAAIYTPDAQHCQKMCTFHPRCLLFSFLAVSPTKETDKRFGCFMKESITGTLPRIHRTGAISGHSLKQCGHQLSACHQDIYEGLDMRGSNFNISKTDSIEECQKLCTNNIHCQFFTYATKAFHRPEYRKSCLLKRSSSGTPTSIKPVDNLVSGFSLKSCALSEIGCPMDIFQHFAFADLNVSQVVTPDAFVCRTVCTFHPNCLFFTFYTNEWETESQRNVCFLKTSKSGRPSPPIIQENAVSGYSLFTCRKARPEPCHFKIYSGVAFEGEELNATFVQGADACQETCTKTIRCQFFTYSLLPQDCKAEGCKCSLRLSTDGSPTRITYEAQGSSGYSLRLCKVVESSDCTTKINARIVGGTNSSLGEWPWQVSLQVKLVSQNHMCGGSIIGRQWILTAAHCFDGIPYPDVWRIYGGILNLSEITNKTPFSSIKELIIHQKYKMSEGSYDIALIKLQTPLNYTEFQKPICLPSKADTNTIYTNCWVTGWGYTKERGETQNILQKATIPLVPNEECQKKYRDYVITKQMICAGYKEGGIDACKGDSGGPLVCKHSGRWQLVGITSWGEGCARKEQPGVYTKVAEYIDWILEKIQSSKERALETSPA
T5 sequence (P03952 other isoform, or with tags, fused parts or gaps mutant limits assumed): as the sequence (P03952 391-638, chain 2 of 2) above, with R161A, Q163A, Y165A, T168A, R170A counted along it

B1: X81-B01 (antibody, V domains shown)
VH: EVQLLESGGGLVQPGGSLRLSCAASGFTFSHYLMTWVRQAPGKGLEWVSYISPSGGHTIYADSVKGRFTISRDNSKNTLYLQMNSLRAEDTAVYYCARVARGIAARSRTSYFDYWGQGTLVTVSS
VL: EIVLTQSPGTLSLSPGERATLSCRTSQFVNSNYLAWYQQKPGQAPRLLIYGASSRATGIPDRFSGSGSGTDFTLTISRLEPEDFAVYYCQQSSRTPWTFGQGTKVEIK
notes: also called X81-B01 (IgG)
In the case of B1, the Ki with human plasma kallikrein is 0.2 nM.

B2: X81-B01 (antibody, V domains shown)
VH: B1 VH
VL: B1 VL
notes: also called X81-B01 (IgG); 559A-X81-B01
As for B2, the Ki in test [1] was 0.2 nM; in test [2], 0.1 nM; with mouse plasma kallikrein [3], 0.011 nM; in the test with mouse plasma kallikrein [4], 0.011 nM; with rat plasma kallikrein, 0.14 nM.

B3: M6-D09 (antibody, V domains shown)
VH: EVQLLESGGGLVQPGGSLRLSCAASGFTFSFYYMVWVRQAPGKGLEWVSVIYPSGGITVYADSVKGRFTISRDNSKNTLYLQMNSLRAEDTAVYYCARDKWAVMPPYYYYAMDVWGQGTTVTVSS
VL: DIQMTQSPSSLSASVGDRVTITCRASQSIRNYLNWYQQKPGKAPNLLIYAASTLQSGVPARFSGSGSGTDFTLTISSLQPEDFATYYCQQLSGYPHTFGQGTKLEIK
notes: Group 3 antibody; also called M06-D09; 559A-M06-D09
With B3, in test [5], the “fold increase of Ki,app against the wild type catalytic domain” value was around 5 fold.
